Data as given in US20030171551A1 (published 2003).

Target: T1, soluble extracellular domain of HER2/neu (ECD) (UniProt P04626 23-652, limits assumed)
T1 construct: extracellular domain; Immobilized on the IAsys microcuvette; also called soluble HER2/neu antigen
Test: IAsys optical biosensor, HER2/neu ECD immobilized on the cuvette

Kd: 53 nM
B1: RANTES.Her2.IgG3 (other)
chain: SPYSSDTTPCCFAYIARPLPRAHIKEYFYTSGKCSNPAVVFVTRKNRQVCANPEKKWVREYINSLEMS
